# Values joined by “and” are separate entries in the source; they are usually repeats but may differ in a detail not shown here. Equal values may be shown once.
# B1: Heterogeneous nuclear ribonucleoprotein K (hnRNPK), full-length wild type with an additional N-terminal glycine (natural protein)
# chain: not shown
# notes: additional glycine residue at the N-terminus, told in words; heterogeneous nuclear ribonucleoprotein K, full-length wild type; theoretical molar mass with the extra glycine 51,033 Da; also called H-hnRNPK; hydrogenated hnRNPK; source: E. coli Rosetta2 (DE3), purified (Ni Hi-trap, TEV cleavage, second Hi-trap, Superdex 200); not shown: His6, N-terminal, cleaved; eGFP, N-terminal, cleaved
# What was measured:
# [1] = target: the molecule itself; experiment: SEC-MALS; SEC-LS (RALS, RI, UV) on Superdex 200 Increase 10/300 at room temperature; hnRNPK sample incubated at room temperature
# [2] = target: the molecule itself; experiment: SEC-MALS; SEC-LS (RALS, RI, UV) on Superdex 200 Increase 10/300 run at room temperature; hnRNPK sample kept at 4 °C (vial holder at 4 °C), low concentration
protein,measurement,setting,value
B1,stoichiometry N,[1],2.88 hnRNPK molecules per particle (measured MM : theoretical MM) and 1.53 hnRNPK molecules per particle (measured MM : theoretical MM)
same,stoichiometry N,[2],1.98 hnRNPK molecules per particle (measured MM : theoretical MM)
